From article PMC10288639 come the findings set out here.

As a reminder, the IC50 is the point on the concentration scale where inhibition reaches its midpoint.

Assay [1] concerns the target G120C/H31C HLA-A*02:01/β2m complex (open HLA-A*02:01). Put plainly: fluorescence polarisation.
For assay [2], the target named is WT HLA-A*02:01/β2m. Kind of assay: fluorescence polarisation. In general terms: Fluorescence polarisation rises when a labelled molecule tumbles more slowly, as on binding a larger partner.

As to TAX9 (peptide), the IC50 in assay [1] and in assay [2] was 250 nM throughout. Take “fluorophore-labeled TAX9 (TAMRA-TAX9) (peptide)”: the fold of the apparent association rate constant k^app on over WT in assay [1] is above 10 fold.
